Assays:
[1] = biological target: IR (insulin receptor) expressed on Sf9 insect cells infected with baculovirus (UniProt P06213); test: flow cytometry on Sf9 insect cells expressing IR
[2] = biological target: IGF-IR expressed on Sf9 insect cells infected with baculovirus (UniProt P08069); test: flow cytometry on Sf9 insect cells expressing IGF-IR

MFI (Mean fluorescence intensity) [1]: 32
MFI (Mean fluorescence intensity) [2]: 35
Substance: Anti-IGF-IR (αIR3) (antibody)

— patent US20120027757A1
